{"source": "IntAct's records for PubMed 31515488", "parents": {"B1": {"name": "Protein mab-21-like 3 (Homo sapiens), Q8N8X9 (parent)", "chain": "MKYLTVGDLEDCLLNKVDLRRQQISQAVEEVQKVVHHLTTNISNQDIRFQAVPYSDTYNENIKVLAPSQFLVTVPIKGLAGYREAREQHWRYYTLQGTRLPCPLRDPEGLQQWLEVEQFMKSLWQWHETDVNIDGDIVPAKVLLVFRKLVENAVRTCHLSGKVSLLGNRSAVWVAVETSAYQVELELVPAVEIPTTWSKKARWPRCLQRWPSQERVECIKSFGFNLLACSNYHWQLSFLRAEQVLLEQLDEDGGCRRKCFQVMRHLKEDIWCPGNRPVITSHHLQTVLFWTCEKYPHFKDWQVFSKAFLRLVRKLHKCVSQHFLKHYFVRNSNLFQCTNPTELDTVAQKLATFLKNPQIGPP", "partner": "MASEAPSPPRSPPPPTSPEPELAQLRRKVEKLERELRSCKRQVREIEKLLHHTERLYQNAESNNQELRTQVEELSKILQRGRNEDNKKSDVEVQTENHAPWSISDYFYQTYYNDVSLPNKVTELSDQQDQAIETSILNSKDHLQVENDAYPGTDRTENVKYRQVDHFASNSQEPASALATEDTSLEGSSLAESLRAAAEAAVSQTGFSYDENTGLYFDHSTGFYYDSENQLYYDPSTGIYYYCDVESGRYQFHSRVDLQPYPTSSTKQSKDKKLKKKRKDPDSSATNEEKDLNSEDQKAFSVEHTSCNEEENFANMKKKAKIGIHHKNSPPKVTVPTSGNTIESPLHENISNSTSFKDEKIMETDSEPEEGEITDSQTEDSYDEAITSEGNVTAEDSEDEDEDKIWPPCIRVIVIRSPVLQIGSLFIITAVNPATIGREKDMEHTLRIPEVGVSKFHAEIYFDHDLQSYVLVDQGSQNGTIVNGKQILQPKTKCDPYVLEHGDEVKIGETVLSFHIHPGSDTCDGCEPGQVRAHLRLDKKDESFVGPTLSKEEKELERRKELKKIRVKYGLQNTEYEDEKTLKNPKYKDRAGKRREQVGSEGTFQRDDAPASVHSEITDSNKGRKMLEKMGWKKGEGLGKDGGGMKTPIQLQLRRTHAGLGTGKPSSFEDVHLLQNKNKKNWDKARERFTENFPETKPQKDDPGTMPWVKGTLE"}, "B2": {"name": "Hematopoietic lineage cell-specific protein (Homo sapiens), P14317 (parent)", "chain": "MWKSVVGHDVSVSVETQGDDWDTDPDFVNDISEKEQRWGAKTIEGSGRTEHINIHQLRNKVSEEHDVLRKKEMESGPKASHGYGGRFGVERDRMDKSAVGHEYVAEVEKHSSQTDAAKGFGGKYGVERDRADKSAVGFDYKGEVEKHTSQKDYSRGFGGRYGVEKDKWDKAALGYDYKGETEKHESQRDYAKGFGGQYGIQKDRVDKSAVGFNEMEAPTTAYKKTTPIEAASSGTRGLKAKFESMAEEKRKREEEEKAQQVARRQQERKAVTKRSPEAPQPVIAMEEPAVPAPLPKKISSEAWPPVGTPPSSESEPVRTSREHPVPLLPIRQTLPEDNEEPPALPPRTLEGLQVEEEPVYEAEPEPEPEPEPEPENDYEDVEEMDRHEQEDEPEGDYEEVLEPEDSSFSSALAGSSGCPAGAGAGAVALGISAVAVYDYQGEGSDELSFDPDDVITDIEMVDEGWWRGRCHGHFGLFPANYVKLLE", "partner": "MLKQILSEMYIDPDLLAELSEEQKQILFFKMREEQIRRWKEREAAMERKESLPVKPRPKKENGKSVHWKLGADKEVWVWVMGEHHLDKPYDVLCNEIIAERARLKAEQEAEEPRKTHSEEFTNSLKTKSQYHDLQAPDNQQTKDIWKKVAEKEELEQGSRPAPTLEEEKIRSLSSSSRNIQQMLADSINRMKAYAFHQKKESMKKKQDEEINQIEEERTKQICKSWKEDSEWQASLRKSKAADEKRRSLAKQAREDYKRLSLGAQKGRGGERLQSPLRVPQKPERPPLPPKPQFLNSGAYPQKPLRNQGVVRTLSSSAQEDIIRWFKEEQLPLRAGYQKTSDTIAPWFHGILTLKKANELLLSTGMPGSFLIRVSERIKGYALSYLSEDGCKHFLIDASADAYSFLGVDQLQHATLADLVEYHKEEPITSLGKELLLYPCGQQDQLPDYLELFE"}, "B3": {"name": "Zinc finger protein RFP (Homo sapiens), P14373 (parent)", "chain": "MASGSVAECLQQETTCPVCLQYFAEPMMLDCGHNICCACLARCWGTAETNVSCPQCRETFPQRHMRPNRHLANVTQLVKQLRTERPSGPGGEMGVCEKHREPLKLYCEEDQMPICVVCDRSREHRGHSVLPLEEAVEGFKEQIQNQLDHLKRVKDLKKRRRAQGEQARAELLSLTQMEREKIVWEFEQLYHSLKEHEYRLLARLEELDLAIYNSINGAITQFSCNISHLSSLIAQLEEKQQQPTRELLQDIGDTLSRAERIRIPEPWITPPDLQEKIHIFAQKCLFLTESLKQFTEKMQSDMEKIQELREAQLYSVDVTLDPDTAYPSLILSDNLRQVRYSYLQQDLPDNPERFNLFPCVLGSPCFIAGRHYWEVEVGDKAKWTIGVCEDSVCRKGGVTSAPQNGFWAVSLWYGKEYWALTSPMTALPLRTPLQRVGIFLDYDAGEVSFYNVTERCHTFTFSHATFCGPVRPYFSLSYSGGKSAAPLIICPMSGIDGFSGHVGNHGHSMETSP", "partner": "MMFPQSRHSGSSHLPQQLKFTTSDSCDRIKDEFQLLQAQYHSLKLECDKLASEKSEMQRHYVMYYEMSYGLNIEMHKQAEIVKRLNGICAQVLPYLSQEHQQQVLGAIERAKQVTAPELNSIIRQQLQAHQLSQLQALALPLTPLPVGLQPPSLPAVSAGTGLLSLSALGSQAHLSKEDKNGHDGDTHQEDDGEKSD"}, "B4": {"name": "Splicing factor 45 (Homo sapiens), Q96I25 (parent)", "chain": "MSLYDDLGVETSDSKTEGWSKNFKLLQSQLQVKKAALTQAKSQRTKQSTVLAPVIDLKRGGSSDDRQIVDTPPHVAAGLKDPVPSGFSAGEVLIPLADEYDPMFPNDYEKVVKRQREERQRQRELERQKEIEEREKRRKDRHEASGFARRPDPDSDEDEDYERERRKRSMGGAAIAPPTSLVEKDKELPRDFPYEEDSRPRSQSSKAAIPPPVYEEQDRPRSPTGPSNSFLANMGGTVAHKIMQKYGFREGQGLGKHEQGLSTALSVEKTSKRGGKIIVGDATEKDASKKSDSNPLTEILKCPTKVVLLRNMVGAGEVDEDLEVETKEECEKYGKVGKCVIFEIPGAPDDEAVRIFLEFERVESAIKAVVDLNGRYFGGRVVKACFYNLDKFRVLDLAEQV", "partner": "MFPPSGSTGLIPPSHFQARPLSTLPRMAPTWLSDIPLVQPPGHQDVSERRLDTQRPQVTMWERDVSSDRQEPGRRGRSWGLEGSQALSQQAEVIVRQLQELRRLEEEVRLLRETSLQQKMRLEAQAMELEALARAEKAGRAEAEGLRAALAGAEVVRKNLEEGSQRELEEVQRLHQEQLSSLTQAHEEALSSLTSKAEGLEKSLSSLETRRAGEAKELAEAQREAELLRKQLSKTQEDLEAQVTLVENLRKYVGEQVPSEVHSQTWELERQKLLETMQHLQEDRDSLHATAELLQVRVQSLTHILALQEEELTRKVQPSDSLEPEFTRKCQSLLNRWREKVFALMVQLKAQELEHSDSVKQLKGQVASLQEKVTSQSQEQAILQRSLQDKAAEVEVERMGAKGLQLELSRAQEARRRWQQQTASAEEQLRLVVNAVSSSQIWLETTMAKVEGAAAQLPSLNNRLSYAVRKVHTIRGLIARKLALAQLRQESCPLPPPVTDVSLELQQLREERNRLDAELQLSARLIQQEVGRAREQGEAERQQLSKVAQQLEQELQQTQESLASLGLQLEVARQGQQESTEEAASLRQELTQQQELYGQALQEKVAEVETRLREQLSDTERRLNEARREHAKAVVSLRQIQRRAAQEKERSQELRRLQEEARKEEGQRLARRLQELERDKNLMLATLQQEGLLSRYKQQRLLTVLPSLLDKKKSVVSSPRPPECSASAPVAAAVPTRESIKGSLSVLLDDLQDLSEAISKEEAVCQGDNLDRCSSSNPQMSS"}, "B5": {"name": "Uncharacterized protein C3orf62 (Homo sapiens), Q6ZUJ4 (parent)", "chain": "MHYIKTWSLLGEMSEKLRRCRKELTAAIDRAFEGVSYSQECTGQQRLELSAAPLSFSLPVHRLLCRRHPLAACSSAAPFAAVPCAPENENPAFATNHAPVNAKPHALCPERKPLTSKENVLMHSSILAPERESWRTAGEGENWRKENLRKDMERDLKADSNMPLNNSSQEVTKDLLDMIDHTSIRTIEELAGKIEFENELNHMCGHCQDSPFKEEAWALLMDKSPQKATDADPGSLKQAFDDHNIVETVLDLEEDYNVMTSFKYQIE", "partner": "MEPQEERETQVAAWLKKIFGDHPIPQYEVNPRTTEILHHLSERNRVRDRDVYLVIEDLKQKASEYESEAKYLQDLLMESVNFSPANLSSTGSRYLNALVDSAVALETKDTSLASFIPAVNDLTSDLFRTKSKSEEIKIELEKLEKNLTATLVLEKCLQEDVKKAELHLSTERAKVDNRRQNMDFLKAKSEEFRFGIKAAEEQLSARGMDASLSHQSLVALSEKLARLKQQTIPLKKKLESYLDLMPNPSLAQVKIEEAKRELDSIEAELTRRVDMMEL"}}}
{"variants_of": "B1", "conditions": "with aggf1_human AGGF1, Q8N302"}
{"variant": "T338A", "effect of a mutation on the interaction": "with no effect"}
{"variants_of": "B2", "conditions": "with sh24a_human SH2D4A"}
{"variant": "W21C", "effect of a mutation on the interaction": "with no effect"}
{"variant": "P218L", "effect of a mutation on the interaction": "with no effect"}
{"variant": "E361K", "effect of a mutation on the interaction": "with no effect"}
{"variants_of": "B3", "conditions": "with tle5_human TLE5, Q08117"}
{"variant": "N355S", "effect of a mutation on the interaction": "with no effect"}
{"variants_of": "B4", "conditions": "with cchcr_human CCHCR1, Q8TD31"}
{"variant": "T224I", "effect of a mutation on the interaction": "with no effect"}
{"variants_of": "B5", "conditions": "with haus1_human HAUS1, Q96CS2"}
{"variant": "R66G", "effect of a mutation on the interaction": "with no effect"}
